Results: patent US20220195023A1

Tests used:
[1] = molecular target: (NVDP)3(NANP)2 (Plasmodium falciparum); test: BLI, target on sensor
[2] = molecular target: (NPNA)3 (Plasmodium falciparum); test: BLI, target on sensor
[3] = molecular target: … (Plasmodium falciparum); test: BLI, target on sensor
[4] = molecular target: NANPNVDP (Plasmodium falciparum); test: BLI, target on sensor
[5] = molecular target: (NANP)6 (Plasmodium falciparum); test: BLI, target on sensor
[6] = molecular target: (NVDP)3(NANP)2 (Plasmodium falciparum); test: SPR, antibody on chip
[7] = molecular target: (NPNA)3 (Plasmodium falciparum); test: SPR, antibody on chip
[8] = molecular target: … (Plasmodium falciparum); test: SPR, antibody on chip
[9] = molecular target: (NANP)6 (Plasmodium falciparum); test: SPR, antibody on chip

Binder | Kd [1] | Kd [2] | Kd [3] | Kd [4] | Kd [5] | Kd [6] | Kd [7] | Kd [8] | Kd [9]
AB-007031 (antibody, V domains shown) VH: QMQLVESGGGVVQPGRSLRLSCTASGFTFSTYAMHWVRQSPGQGLQWVAVISYHSTNKYYEDSVRGRFTISRDNSKNTLYLQMNSLRAEDTAVYYCARDGYSSSFFDFWGQGTLVTVSS VL: DIQMTQSPSTLSASVGDRVAITCRASQSISRWLAWYQQQPGKAPKLLISGASVLESGVPSRFSGSGSGTEFTLTISSLQPDDFATYYCQHYNSYFVTFGQGTKVEIK | 3.5 nM | 0.003 nM | 2.89 nM | 7.02 nM | 0.0569 nM | 2590 nM | 8.02 nM | 5.21 µM | 0.0384 nM
AB-007028 (antibody, V domains shown) VH: QMQLVESGGGVVQPGRSLRLSCAASGFTFSTYAMHWVRQAPGQGLQWVAVISYHSTNKYYEDSVRGRFTISRDNSKNTLYLQMNSLRAEDTAVYYCARDGYSSSFFDFWGQGTLVTVSS VL: DIQMTQSPSTLSASVGDRVTITCRASQSISRWLAWYQQQPGKAPKLLMSGASVLESGVPSRFSGSGSGTEFTLTISSLQPDDFATYYCQHYNSYFVTFGQGTKVEIK | 4.26 nM | 0.0413 nM | 2.93 nM | 9.18 nM | 0.501 nM | 2350 nM | 5.37 nM | 15.9 µM | 0.166 nM
AB-007032 (antibody, V domains shown) VH: QVQLVESGGGVVQPGRSLRLSCAASGFTFSTYAMHWVRQAPGQGLQWVAVISYHSTNKYYEDSVRGRFTISRDNSKNTLYLQMNSLRAEDTAVYYCARDGYSSSFFDFWGQGTLVTVSS VL: DIQMTQSPSTLSASVGDRVTITCRASQSISRWLAWYQQQPGKAPKLLISGASVLESGVPSRFSGSGSGTEFTLTISSLQPDDFATYYCQHYNSYFVTFGQGTKVEIK | 6.68 nM | 0.169 nM | 6.42 nM | 13.9 nM | 0.338 nM | 6540 nM | 13.6 nM | 4.83 µM | 1.96 nM
AB-007033 (antibody, V domains shown) VH: QMQLVESGGGVVQPGRSLRLSCAASGFTFSTYAMHWVRQAPGQGLEWVAVISYHSTNKYYADSVRGRFTISRDNSKNTLYLQMNSLRAEDTAVYYCARDGYSSSFFDFWGQGTLVTVSS VL: DIQMTQSPSTLSASVGDRVTITCRASQSISRWLAWYQQQPGKAPKLLMSGASVLESGVPSRFSGSGSGTEFTLTISSLQPDDFATYYCQHYNSYFVTFGQGTKVEIK | 3.47 nM | 0.154 nM | 2.62 nM | 8.08 nM | 0.303 nM | 2680 nM | 8.02 nM | 2.58 µM | 0.0631 nM
AB-007034 (antibody, V domains shown) VH: QVQLVESGGGVVQPGRSLRLSCAASGFTFSTYAMHWVRQAPGQGLEWVAVISYHSTNKYYADSVRGRFTISRDNSKNTLYLQMNSLRAEDTAVYYCARDGYSSSFFDFWGQGTLVTVSS VL: DIQMTQSPSTLSASVGDRVTITCRASQSISRWLAWYQQQPGKAPKLLISGASVLESGVPSRFSGSGSGTEFTLTISSLQPDDFATYYCQHYNSYFVTFGQGTKVEIK | 6.14 nM | 0.00372 nM | 5.44 nM | 11.5 nM | 0.0899 nM | 6710 nM | 17 nM | 24.1 µM | 0.932 nM
AB-007035 (antibody, V domains shown) VH: QMQLVESGGGVVQPGRSLRLSCTASGFTFSSYAMHWVRQSPGQGLQWVAVISYHSTNKYYEDSVRGRFTISRDNSKNTLYLQMNSLRAEDTAVYYCARDGYSSSFFDFWGQGTLVTVSS VL: DIQMTQSPSTLSASVGDRVAITCRASQSISRWLAWYQQQPGKAPKLLMSGASVLESGVPSRFSGSGSGTEFTLTISSLQPDDFATYYCQHYNSYFVTFGQGTKVEIK | 5.09 nM | 0.322 nM | 2.61 nM | 9.28 nM | 0.927 nM | 2690 nM | 5.73 nM | 9.75 µM | 0.757 nM
AB-007036 (antibody, V domains shown) VH: QMQLVESGGGVVQPGRSLRLSCTASGFTFSTYAMHWVRQSPGQGLQWVAVISYDSTNKYYEDSVRGRFTISRDNSKNTLYLQMNSLRAEDTAVYYCARDGYSSSFFDFWGQGTLVTVSS VL: DIQMTQSPSTLSASVGDRVAITCRASQSISRWLAWYQQQPGKAPKLLMSGASVLESGVPSRFSGSGSGTEFTLTISSLQPDDFATYYCQHYNSYFVTFGQGTKVEIK | 17.4 nM | 0.00382 nM | 16.9 nM | 29.6 nM | 0.226 nM | 16700 nM | 33.5 nM | 17.5 µM | 0.0466 nM
AB-007037 (antibody, V domains shown) VH: QMQLVESGGGVVQPGRSLRLSCTASGFTFSTYAMHWVRQSPGQGLQWVAVISYHSTNKYYEDSVKGRFTISRDNSKNTLYLQMNSLRAEDTAVYYCARDGYSSSFFDFWGQGTLVTVSS VL: DIQMTQSPSTLSASVGDRVAITCRASQSISRWLAWYQQQPGKAPKLLMSGASVLESGVPSRFSGSGSGTEFTLTISSLQPDDFATYYCQHYNSYFVTFGQGTKVEIK | 4.44 nM | 0.0035 nM | 2.47 nM | 8.41 nM | 0.384 nM | 2690 nM | 7.14 nM | 2.24 µM | 1.73 nM
AB-007038 (antibody, V domains shown) VH: QMQLVESGGGVVQPGRSLRLSCTASGFTFSTYAMHWVRQSPGQGLQWVAVISYHSTNKYYEDSVRGRFTISRDNSKNTLYLQMNSLRAEDTAVYYCARDGYSSSFFDYWGQGTLVTVSS VL: DIQMTQSPSTLSASVGDRVAITCRASQSISRWLAWYQQQPGKAPKLLMSGASVLESGVPSRFSGSGSGTEFTLTISSLQPDDFATYYCQHYNSYFVTFGQGTKVEIK | 5.82 nM | 0.544 nM | 3.81 nM | 10.9 nM | 1.34 nM | 3060 nM | 8.97 nM | 13.1 µM | 0.0281 nM
AB-007039 (antibody, V domains shown) VH: QMQLVESGGGVVQPGRSLRLSCTASGFTFSTYAMHWVRQSPGQGLQWVAVISYHSTNKYYEDSVRGRFTISRDNSKNTLYLQMNSLRAEDTAVYYCARDGYSSSFFDFWGQGTLVTVSS VL: DIQMTQSPSTLSASVGDRVAITCRASQSISRWLAWYQQQPGKAPKLLMSGASVLESGVPSRFSGSGSGTEFTLTISSLQPDDFATYYCQHYNSYSVTFGQGTKVEIK | 7.26 nM | 0.812 nM | 7.97 nM | 15.3 nM | 1.19 nM | 8250 nM | 112 nM | 14.7 µM | 0.143 nM
AB-007040 (antibody, V domains shown) VH: QMQLVESGGGVVQPGRSLRLSCTASGFTFSTYAMHWVRQSPGQGLQWVAVISYHSTNKYYEDSVRGRFTISRDNSKNTLYLQMNSLRAEDTAVYYCARDGYSSSFFDFWGQGTLVTVSS VL: DIQMTQSPSTLSASVGDRVAITCRASQSISRWLAWYQQQPGKAPKLLMSGASVLESGVPSRFSGSGSGTEFTLTISSLQPDDFATYYCQHYNSYYVTFGQGTKVEIK | 4.67 nM | 0.337 nM | 4.17 nM | 9.56 nM | 0.56 nM | 3110 nM | 9.5 nM | 3.73 µM | 0.344 nM
AB-007041 (antibody, V domains shown) VH: QMQLVESGGGVVQPGRSLRLSCTASGFTFSDYAMHWVRQSPGQGLQWVAVISYHSTNKYYEDSVRGRFTISRDNSKNTLYLQMNSLRAEDTAVYYCARDGYSSSFFDFWGQGTLVTVSS VL: DIQMTQSPSTLSASVGDRVAITCRASQSISRWLAWYQQQPGKAPKLLMSGASVLESGVPSRFSGSGSGTEFTLTISSLQPDDFATYYCQHYNSYFVTFGQGTKVEIK | 6.65 nM | 0.145 nM | 5.57 nM | 12.1 nM | 0.47 nM | 3930 nM | 5.64 nM | 2.52 µM | 0.246 nM
AB-007042 (antibody, V domains shown) VH: QMQLVESGGGVVQPGRSLRLSCTASGFTFSTYAMHWVRQSPGQGLQWVAVISYHSTNKYYEDSVRGRFTISRDNSKNTLYLQMNSLRAEDTAVYYCARDGYSSSFFDFWGQGTLVTVSS VL: DIQMTQSPSTLSASVGDRVAITCRASQDISRWLAWYQQQPGKAPKLLMSGASVLESGVPSRFSGSGSGTEFTLTISSLQPDDFATYYCQHYNSYFVTFGQGTKVEIK | 3.9 nM | 0.00314 nM | 2.99 nM | 8.56 nM | 0.0276 nM | 2310 nM | 7.04 nM | 11.7 µM | 0.998 nM
AB-007043 (antibody, V domains shown) VH: QMQLVESGGGVVQPGRSLRLSCTASGFTFSTYAMHWVRQSPGQGLQWVAVISYHSTNKYYEDSVRGRFTISRDNSKNTLYLQMNSLRAEDTAVYYCARDGYSSSFFDFWGQGTLVTVSS VL: DIQMTQSPSTLSASVGDRVAITCRASQSISRWLAWYQQQPGKAPKLLMSGASVLEDGVPSRFSGSGSGTEFTLTISSLQPDDFATYYCQHYNSYFVTFGQGTKVEIK | 5.2 nM | 0.00341 nM | 4.87 nM | 10.4 nM | 0.293 nM | 2590 nM | 7.51 nM | 16.3 µM | 1.11 nM
AB-007044 (antibody, V domains shown) VH: QMQLVESGGGVVQPGRSLRLSCTASGFTFSTYAMHWVRQSPGQGLQWVAVISYHSTNKYYEESVRGRFTISRDNSKNTLYLQMNSLRAEDTAVYYCARDGYSSSFFDFWGQGTLVTVSS VL: DIQMTQSPSTLSASVGDRVAITCRASQSISRWLAWYQQQPGKAPKLLMSGASVLESGVPSRFSGSGSGTEFTLTISSLQPDDFATYYCQHYNSYFVTFGQGTKVEIK | 5.99 nM | 0.239 nM | 3.47 nM | 8.61 nM | 0.85 nM | 2240 nM | 7.96 nM | 12.7 µM | 0.139 nM
